Data reported in the supplement of paper PMC11136658.

System: peptide library, one residue held at a place counted from the Y acceptor
Test: relative phosphorylation of the sub-library (ratio to the mean residue at this position); higher = residue favoured
How it was run: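 Purified recombinant kinases were incubated for 90 min in 384-well plates with biotinylated Tyr-centred peptide library mixtures, each fixing one residue at one position from −5 to +5, plus 50 μM ATP with γ-32P-ATP. Peptides were captured on streptavidin membranes, rinsed and quantified by phosphorimaging and ImageQuant. Intensities were normalized per position by the sum of the 18 (or 16, Ser/Thr-free library) randomized residues and multiplied by that number. Values give phosphorylation relative to the mean randomized residue.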

FGFR2, construct: aa285-end, human, sequence (P21802 285-821, looked up): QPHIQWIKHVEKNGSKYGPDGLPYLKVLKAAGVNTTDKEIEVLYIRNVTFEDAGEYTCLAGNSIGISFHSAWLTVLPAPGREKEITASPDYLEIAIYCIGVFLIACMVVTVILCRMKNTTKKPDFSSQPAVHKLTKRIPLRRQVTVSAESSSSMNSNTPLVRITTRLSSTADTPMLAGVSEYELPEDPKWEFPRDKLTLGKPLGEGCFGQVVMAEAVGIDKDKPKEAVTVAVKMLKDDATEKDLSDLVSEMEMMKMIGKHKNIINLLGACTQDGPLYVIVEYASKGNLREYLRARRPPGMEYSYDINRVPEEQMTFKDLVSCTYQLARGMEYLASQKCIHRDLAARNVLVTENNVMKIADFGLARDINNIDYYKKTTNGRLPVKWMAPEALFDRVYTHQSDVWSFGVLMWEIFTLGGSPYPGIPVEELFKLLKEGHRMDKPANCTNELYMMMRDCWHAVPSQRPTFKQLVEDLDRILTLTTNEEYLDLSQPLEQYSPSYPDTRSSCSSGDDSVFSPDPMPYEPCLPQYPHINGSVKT
PTK2B, construct: aa360-690, human, sequence (Q14289 360-690, looked up): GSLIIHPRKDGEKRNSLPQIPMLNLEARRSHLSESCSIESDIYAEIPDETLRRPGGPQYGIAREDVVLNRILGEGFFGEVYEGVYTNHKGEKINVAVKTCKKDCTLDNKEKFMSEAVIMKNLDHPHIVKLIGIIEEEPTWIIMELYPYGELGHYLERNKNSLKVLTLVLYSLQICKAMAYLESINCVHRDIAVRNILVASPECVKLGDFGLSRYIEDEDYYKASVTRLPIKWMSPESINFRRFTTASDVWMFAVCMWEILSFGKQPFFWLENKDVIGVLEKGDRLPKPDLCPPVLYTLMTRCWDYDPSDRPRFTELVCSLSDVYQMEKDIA
EPHB3, construct: aa623-907, human, sequence (P54753 623-907, looked up): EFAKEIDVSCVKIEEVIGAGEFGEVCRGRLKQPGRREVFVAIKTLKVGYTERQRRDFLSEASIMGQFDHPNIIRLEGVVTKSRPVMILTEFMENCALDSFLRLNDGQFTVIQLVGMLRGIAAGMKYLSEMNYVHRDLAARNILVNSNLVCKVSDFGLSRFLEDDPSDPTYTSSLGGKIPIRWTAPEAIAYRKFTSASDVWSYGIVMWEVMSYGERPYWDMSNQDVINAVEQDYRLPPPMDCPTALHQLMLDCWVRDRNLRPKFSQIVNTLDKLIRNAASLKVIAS

EPHB3, construct: aa623-907, human (from UniProt P54753)
relative phosphorylation
Details	at +1	at +2	at +3	at +4	at +5	at -1	at -2	at -3	at -4	at -5
A fixed	1.96	0.847	0.837	0.853	0.843	0.583	1.21	0.804	1.15	0.981
D fixed	1.06	0.993	0.442	1.06	1.14	2.09	1.04	1.04	1.03	0.921
E fixed	2.6	1.33	0.413	1.16	1.15	1.38	1.29	1.19	1.39	0.842
F fixed	0.588	1.38	1.31	1.04	0.656	1.03	0.661	1.39	1.09	1.16
G fixed	1.13	0.428	0.651	1.26	1.36	0.226	1.33	1.05	1.37	1.32
H fixed	0.573	0.91	1.57	1.19	1.12	0.638	0.9	1.05	0.899	0.933
I fixed	1.19	1.24	1.95	0.801	0.581	2.29	0.899	1.14	1.01	1.14
K fixed	0.211	0.576	0.297	0.737	1.02	0.234	0.841	0.61	0.898	0.992
L fixed	0.732	0.974	1.39	0.821	0.613	1.87	0.83	0.912	0.959	0.98
M fixed	1.14	0.913	1.29	0.984	0.927	0.849	0.709	0.928	0.854	0.9
N fixed	0.393	1.01	0.653	0.856	1.1	2.4	1.12	1.09	0.922	1.08
P fixed	0.157	0.739	1.26	1.54	1.46	0.415	1.32	1.12	1.06	1.06
Q fixed	1.31	0.954	0.799	1.01	1.07	0.406	1.18	0.837	1.11	0.989
R fixed	0.278	0.768	0.468	0.855	1.32	0.239	0.896	0.722	0.84	1.03
S fixed	1	0.886	0.689	0.8	1.2	0.516	1.3	1	0.82	0.869
T fixed	0.903	0.989	0.796	0.865	1.16	1.03	0.96	0.942	0.762	0.761
V fixed	1.64	1.29	1.7	0.814	0.552	1.1	0.848	0.874	0.777	0.795
W fixed	1.12	1.77	1.49	1.36	0.723	0.697	0.672	1.31	1.05	1.26
pThr fixed	1.34	1.82	0.32	0.825	0.763	1.63	0.847	0.897	0.873	0.831
pTyr fixed	1.5	3.93	0.629	0.894	0.978	1.79	1.05	1.06	1.06	0.83

FGFR2, construct: aa285-end, human (from UniProt P21802)
relative phosphorylation
Details	at +1	at +2	at +3	at +4	at +5	at -1	at -2	at -3	at -4	at -5
A fixed	0.967	0.586	0.554	0.848	1	0.772	0.949	0.935	1.13	0.929
D fixed	0.362	0.991	0.671	0.93	1.01	2.28	1.18	1.26	1	1.09
E fixed	0.774	1.54	0.515	1.11	0.972	1.41	1.42	1.53	1.14	0.89
F fixed	1.69	1.57	1.53	1.06	0.992	0.988	0.642	0.852	0.949	0.962
G fixed	0.345	0.353	0.495	0.981	1.32	0.506	1.09	1.09	1.2	1.27
H fixed	1.84	0.971	0.988	1.14	0.943	1.51	1.28	1.16	1.2	1.21
I fixed	1.33	0.926	1.89	0.883	0.836	1.23	0.679	0.697	0.773	0.806
K fixed	0.55	0.524	0.303	0.868	0.819	0.5	1.19	1.01	1.13	1.33
L fixed	0.929	1.24	1.96	0.885	0.927	0.94	0.78	0.685	0.81	0.824
M fixed	1.06	1.41	1.87	1.01	0.979	0.689	0.674	0.774	0.812	0.842
N fixed	0.472	1.01	0.488	0.865	0.987	1.3	1.14	1.28	0.939	1.05
P fixed	1.11	0.612	0.666	1.16	1.47	0.815	1.08	0.924	1.17	1.01
Q fixed	0.953	0.78	0.776	0.97	0.832	1.04	1.12	0.892	1.03	0.952
R fixed	0.706	0.758	0.551	1.39	0.884	0.495	1.24	1.12	1.26	1.34
S fixed	0.733	0.665	0.545	0.966	1.02	0.681	1.14	1.13	0.854	0.939
T fixed	0.901	0.827	0.737	0.918	0.983	0.805	0.939	1.08	0.721	0.883
V fixed	1.55	1.02	1.62	0.872	1.05	0.97	0.752	0.662	0.757	0.714
W fixed	1.72	2.22	1.84	1.14	0.977	1.08	0.697	0.912	1.12	0.969
pThr fixed	0.729	1.43	0.766	0.731	0.782	1.25	1	1.1	0.883	0.849
pTyr fixed	2.75	2.82	0.616	1.15	0.835	2.48	1.25	1.2	1.1	0.913

PTK2B, construct: aa360-690, human (from UniProt Q14289)
relative phosphorylation
Details	at +1	at +2	at +3	at +4	at +5	at -1	at -2	at -3	at -4	at -5
A fixed	2.28	0.739	0.756	0.904	1.08	0.722	1.03	1.03	1.15	1.03
D fixed	1.55	0.792	0.312	0.86	0.799	0.478	1.34	1.28	0.976	0.952
E fixed	2.04	1.29	0.341	0.961	0.887	0.489	1.54	1.52	0.85	0.801
F fixed	0.834	1.85	1.42	1.04	0.992	1.06	0.634	0.986	1.29	1.07
G fixed	1.1	0.402	0.58	1.02	1.31	0.297	1.06	1.07	1.23	1.14
H fixed	0.593	0.657	0.685	1.05	0.966	0.719	0.953	0.965	1.01	1.05
I fixed	1.12	1.56	2.46	0.896	0.903	4.36	1.02	0.657	0.851	0.978
K fixed	0.171	0.444	0.228	0.762	0.731	0.29	0.703	0.866	0.915	1.13
L fixed	0.499	1.68	1.61	0.925	0.92	1.99	1.02	0.816	1.07	1.04
M fixed	0.908	1.13	1.11	1.15	1	0.811	0.729	0.903	0.939	1.08
N fixed	0.297	0.815	0.397	0.711	0.838	0.63	1.13	1.18	0.937	1.02
P fixed	0.374	0.702	2.31	1.08	1.72	0.488	1.15	0.97	1.14	1.01
Q fixed	0.788	0.679	0.365	0.992	0.758	0.443	1.09	0.895	0.918	0.896
R fixed	0.215	0.603	0.298	0.938	0.912	0.374	0.748	0.923	0.969	1.16
S fixed	1.15	0.82	0.669	0.981	1.1	0.534	1.08	1.27	0.927	0.98
T fixed	1.02	0.823	0.794	0.875	1.09	0.935	0.962	1.02	0.679	0.825
V fixed	2.02	1.27	2.28	1.09	0.926	2.67	1.2	0.704	0.86	0.926
W fixed	1.04	1.75	1.4	1.77	1.07	0.714	0.613	0.95	1.3	0.917
pThr fixed	3.7	2.29	0.44	0.84	0.752	0.624	1.09	0.878	0.728	0.817
pTyr fixed	2.13	6.16	0.885	1.48	0.901	1.53	1.17	1.32	0.964	0.94
